{"source": "patent US20150359847A1", "about": "“METHOD AND COMPOSITION FOR CONFERRING NEUROPROTECTION” (BLOOD SYSTEMS RESEARCH INSTITUTE, priority 2014, published 2015)", "molecules": {"B1": {"name": "TIMP3: Recombinant tissue inhibitor of matrix metalloproteinase-3, a soluble protein released by MSCs, obtained from Amgen Inc. (protein)", "chain": "CTCSPSHPQDAFCNSDIVIRAKVVGKKLVKEGPFGTLVYTIKQMKMYRGFTKMPHVQYIHTEASESLCGLKLEVNKYQYLLTGRVYDGKMYTGLCNFVERWDQLTLSQRKGLNYRYHLGCNCKIKSCYYLPCFVTSKNECLWTDMLSNFGYPGYQSKHYACIRQKGGYCSWYRGWAPPDKSIINATDP"}}, "key": {"[1]": {"test_system": "mouse model of controlled cortical impact (CCI)", "assay": "Elevated Plus Maze in controlled cortical impact (CCI) TBI mice", "format": "in vivo", "from_the_text": "The mouse controlled cortical impact (CCI) injury model was used as previously described. In brief, mice were anesthetized with 5% isoflurane and 1:1 O2:N2 mixture. Animals were mounted on a stereotaxic frame and were secured by ear bars and an incisor bar. Anesthesia was maintained with 2.0% isoflurane and 1:1 O2:N2 mixture. A 5-mm-diameter craniotomy was made midway between bregma and lambda on the right side, with the medial edge of the craniotomy 1 mm lateral to midline. Injury was produced using a magnetic impactor mounted at an angle of 110° from the vertical plane. A single impact at a velocity of 4+/−0.2 m/s was used inflict a moderate to severe injury (1.2-1.3 mm impact depth). After injury, the incision was closed. Sham animals underwent identical surgeries except for impact injury. Core body temperature was monitored using a rectal thermometer and maintained at 36.8° C.-37.2° C. with a heating pad throughout the procedure. […] Animal research was performed with approval of the Institutional Animal Care and Use Committee at ISIS Services LLC (San Carlos, Calif., USA). […]\nThe elevated plus maze was used to assess anxiety behavior in mice. […] The frequency of entries into the open and closed arms was recorded with an overhead camera using tracking software (Ethovision, Noldus Information Technology, Leesbury, Va.)."}, "[2]": {"test_system": "DCX+ve neurons in the subgranule zone of the dentate gyrus", "conditions": "7 days post-TBI", "from_the_text": "The mouse controlled cortical impact (CCI) injury model was used as previously described. In brief, mice were anesthetized with 5% isoflurane and 1:1 O2:N2 mixture. Animals were mounted on a stereotaxic frame and were secured by ear bars and an incisor bar. Anesthesia was maintained with 2.0% isoflurane and 1:1 O2:N2 mixture. A 5-mm-diameter craniotomy was made midway between bregma and lambda on the right side, with the medial edge of the craniotomy 1 mm lateral to midline. Injury was produced using a magnetic impactor mounted at an angle of 110° from the vertical plane. A single impact at a velocity of 4+/−0.2 m/s was used inflict a moderate to severe injury (1.2-1.3 mm impact depth). After injury, the incision was closed. Sham animals underwent identical surgeries except for impact injury. Core body temperature was monitored using a rectal thermometer and maintained at 36.8° C.-37.2° C. with a heating pad throughout the procedure. For treatments, TIMP3 (60.0 μg/kg) or vehicle control (PBS) administration was performed at 2, 24, and 48 hrs after injury via tail vein injections in a total volume of 125 μl. Animal research was performed with approval of the Institutional Animal Care and Use Committee at ISIS Services LLC (San Carlos, Calif., USA). […]"}, "[3]": {"test_system": "phospho-S6 Ribosomal Protein (S235/236) in hippocampus", "assay": "Hippocampal phospho-S6RP western blot and tissue staining 3 days post-TBI", "format": "in vivo, mouse", "from_the_text": "The mouse controlled cortical impact (CCI) injury model was used as previously described. In brief, mice were anesthetized with 5% isoflurane and 1:1 O2:N2 mixture. Animals were mounted on a stereotaxic frame and were secured by ear bars and an incisor bar. Anesthesia was maintained with 2.0% isoflurane and 1:1 O2:N2 mixture. A 5-mm-diameter craniotomy was made midway between bregma and lambda on the right side, with the medial edge of the craniotomy 1 mm lateral to midline. Injury was produced using a magnetic impactor mounted at an angle of 110° from the vertical plane. A single impact at a velocity of 4+/−0.2 m/s was used inflict a moderate to severe injury (1.2-1.3 mm impact depth). After injury, the incision was closed. Sham animals underwent identical surgeries except for impact injury. Core body temperature was monitored using a rectal thermometer and maintained at 36.8° C.-37.2° C. with a heating pad throughout the procedure. For treatments, TIMP3 (60.0 μg/kg) or vehicle control (PBS) administration was performed at 2, 24, and 48 hrs after injury via tail vein injections in a total volume of 125 μl. Animal research was performed with approval of the Institutional Animal Care and Use Committee at ISIS Services LLC (San Carlos, Calif., USA). Mice received humane care according to the criteria outlined by the National Research Council's Institute of Laboratory Animal Resources in the “Guide for the Care and Use of Laboratory Animals”. Neurocognitive testing conducted at UT Houston was in compliance with University of Texas Houston Institutional Animal Care and Use Committee.\nFollowing treatments mice were subjected to a intra-cardiac perfusion-fixation procedure under isoflurane anesthesia. In brief, following a small incision into the right ventricle, a blunt needle was placed 5 mm into the heart and clamped in place. The left atrium was cut and 30 mls of ice cold PBS was perfused through the mouse using a syringe pump at a constant rate of 4 ml/min. After PBS the procedure was repeated with 30 ml of 4% ice-cold paraformaldehyde (PFA) in PBS. Upon completion of the perfusion procedure, brains were dissected out and placed in 20 mls of 4% PFA for a further 24 hrs before transferring to a 30% sucrose solution for an additional 48 hrs. Following sucrose infiltration, brains were frozen in Tissue-Tek O.C.T.™ compound (Cat#4583, Sakura Fineteck USA, Inc. Torrance, Calif.) using an isopentane/dry ice bath. To prepare coronal sections for tissue staining 20 μm thick sections were obtained using a Leica CM1850™ cryostat (Leica Microsystems, Buffalo Grove, Ill.). Sections were immediately placed in a Storage Solution (30% Glycerol, 30% Ethylene Glycol, 40% 0.1M Phosphate Buffer pH 7.2) and stored at −20° C. until required.\nThe same protocol was adopted for both tissue sections and isolated neuronal cultures. Briefly, sections were permeabilized with antibody staining solution:—2% w/v BSA (Cat# A3059. Sigma, St Louis, Mo.), 0.1% Triton X-100™ (Cat# X100. Sigma, St Louis, Mo.), 2% v/v goats serum (Cat# S-1000, Vector Labs, Burlingame, Calif.) in PBS. Sections were incubated overnight with primary antibodies on a rotating shaker at 4° C. Sections were then washed three times for 3 min with PBS, and then incubated with secondary antibodies for 1 hr. After staining, sections were washed in PBS, briefly air dried, and coverslipped using Prolong™ gold anti-fade reagent with DAPI (Cat# P36931, Life Technologies, Grand Island, N.Y.). Isolated neuronal cultures underwent the same staining protocol with the exception of the last step in which Prolong gold anti-fade reagent with DAPI was added to the wells of the culture plate sufficient to cover the material. Images were obtained using a Leica DMI6000-B™ inverted microscope, Leica DFC36-FX™ digital camera and Leica Application Suite™ (L.A.S.) software, version 3.1. […]"}}, "data": [{"molecule": "B1", "values": [{"measurement": "frequency of entries into the closed arms (Elevated Plus Maze)", "setting": "[1]; TBI+TIMP3 vs TBI alone, day 3", "result": "comparable frequency"}, {"measurement": "frequency of entries into the open arms (Elevated Plus Maze)", "setting": "[1]; TIMP3 60 μg/kg tail-vein at 1 hr, 24 hrs, 72 hrs post-TBI, EPM on day 3, vs TBI alone", "result": "11±1.8"}, {"measurement": "DCX staining, contralateral side", "setting": "[2]", "result": "no significant differences on the contralateral side"}, {"measurement": "DCX+ve neurons, ipsilateral", "setting": "[2]; IV TIMP3 vs TBI", "result": "significantly attenuated"}, {"measurement": "ipsilateral hippocampal phospho-S6RP levels versus sham controls", "setting": "[3]; 3 days post-TBI, western blot", "result": "are not significantly elevated in TBI alone versus sham controls unlike IV TIMP3 treated animals versus Sham controls"}, {"measurement": "phospho-S6 Ribosomal Protein (S235/236) in ipsilateral hippocampal homogenates", "setting": "[3]; TIMP3 60 μg/kg IV x3, day 3, western blot, vs TBI alone", "result": "significantly elevates"}, {"measurement": "phospho-S6RP pixel density in area CA3", "setting": "[3]; day 3, tissue staining", "result": "significant elevation"}, {"measurement": "phospho-S6RP/NeuN+ve neurons in the GCL proximal to injury site", "setting": "[3]; day 3, tissue staining", "result": "an elevation with TIMP3 treatment"}, {"measurement": "phospho-S6RP (S235/236) in contralateral hippocampal homogenates", "setting": "[3]; day 3, western blot", "result": "No differences were observed"}, {"measurement": "phosphorylated S6RP staining in the non-neuronal molecular layer (microglia/astrocytes)", "setting": "[3]; ipsilateral hippocampus, day 3", "result": "Neither sham controls nor TIMP3 treated TBI mice showed this pattern of staining"}]}]}
